Laboratory results as given in PMC11234460, “In Silico Discovery of Stapled Peptide Inhibitor Targeting the Nur77‐PPARγ Interaction and Its Anti‐Breast‐Cancer Efficacy” (Advanced Science, 2024).
Bridges are numbered along the chain shown (N, C = ends). Where no end group is shown, it is not given here. [ ]: non-standard residue; d: D form. S5 = C=CCCC[C@](C)(N)C(=O)O

Legend:
[1] = biological target: T1, LBD fragment of human Nur77 (residues 351–598) (human, UniProt P22736 351-598); experiment: MST; purified Nur77 LBD labelled with fluorescent dye; peptides 0.1-100 × 10^-6 M; PBST (0.05% Tween-20); 20 min at room temperature; Dianthus (NanoTemper); settings: both partners purified
T1 construct: Labelled with a fluorescent dye for MST; amine-coupled to the chip for SPR; also called Nur77 LBD; Nur77-LBD; source: E. coli BL21(DE3), purified (Ni-NTA, Superdex 200 gel filtration)
T1 sequence (P22736 351-598): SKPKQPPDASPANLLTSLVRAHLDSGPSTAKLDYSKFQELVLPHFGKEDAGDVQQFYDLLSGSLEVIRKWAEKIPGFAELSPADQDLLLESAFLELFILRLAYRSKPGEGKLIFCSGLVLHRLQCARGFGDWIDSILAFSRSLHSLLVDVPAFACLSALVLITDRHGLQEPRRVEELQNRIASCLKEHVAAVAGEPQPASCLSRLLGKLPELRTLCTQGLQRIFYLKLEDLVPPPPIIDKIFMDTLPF

[2] = biological target: T2, SmallBit-Nur77 (luciferase SmallBit fusion of Nur77) (UniProt P22736 1-598); experiment: split reporter (BiFC, NanoBiT); settings: one partner purified
T2 construct: Nur77; source: HEK293T, transiently transfected, in living cells
T2 sequence (P22736 whole entry, the tested form may be a part): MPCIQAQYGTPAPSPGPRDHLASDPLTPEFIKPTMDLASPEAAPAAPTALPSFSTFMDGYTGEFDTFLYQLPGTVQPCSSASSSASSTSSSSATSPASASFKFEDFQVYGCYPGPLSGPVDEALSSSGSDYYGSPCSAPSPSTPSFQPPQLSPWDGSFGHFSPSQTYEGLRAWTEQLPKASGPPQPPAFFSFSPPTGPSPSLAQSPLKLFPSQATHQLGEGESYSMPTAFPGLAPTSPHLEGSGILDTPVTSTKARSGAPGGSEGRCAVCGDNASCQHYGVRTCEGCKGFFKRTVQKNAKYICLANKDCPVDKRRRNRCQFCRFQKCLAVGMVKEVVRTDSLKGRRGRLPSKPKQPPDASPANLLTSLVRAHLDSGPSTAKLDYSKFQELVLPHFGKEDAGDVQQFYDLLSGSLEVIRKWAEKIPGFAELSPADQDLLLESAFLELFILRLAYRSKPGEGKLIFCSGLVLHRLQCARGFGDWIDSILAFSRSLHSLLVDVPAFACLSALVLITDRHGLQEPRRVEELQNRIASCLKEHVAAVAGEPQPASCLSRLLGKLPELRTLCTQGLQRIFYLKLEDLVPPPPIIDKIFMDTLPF

[3] = biological target: T1, LBD fragment of human Nur77 (residues …); experiment: SPR; settings: both partners purified
[4] = biological target: T1, LBD fragment of human Nur77 (residues …); experiment: MST; settings: both partners purified

Binder	Kd [1] [µM]	binding result [1]	other results
CEGCKGFFRRTIRY-NH2 (peptide, UniProt P37231 156-169, looked up, cysteine pairing not given here, PPARγ, residues Cys156-Leu169, with Leu169 mutated to Tyr; source: synthetic peptide (Fmoc SPPS on Rink Amide MBHA resin)) [CY14 (CL14 with Leu169 mutated to Tyr)]	8.7	–	–
CEGCKGFFRRTIRF (peptide, UniProt P37231 156-169, looked up, PPARγ, residues Cys156-Leu169, with Leu169 mutated to Phe; source: synthetic peptide (Fmoc SPPS on Rink Amide MBHA resin)) [CF14 (CL14 with Leu169 mutated to Phe)]	–	binds	–
CEGCKGFFRRTIRL-NH2 (peptide, UniProt P37231 156-169, looked up, cysteine pairing not given here, PPARγ, residues Cys156-Leu169 of the DBD; Made on Rink amide resin, so probably a C-terminal amide; source: synthetic peptide (Fmoc SPPS on Rink Amide MBHA resin)) [CL14, α-helix of PPARγ (residues Cys156-Leu169)]	27.2	–	–
CEGCKGFFRRTIRW (peptide, UniProt P37231 156-169, looked up, PPARγ, residues Cys156-Leu169, with Leu169 mutated to Trp; source: synthetic peptide (Fmoc SPPS on Rink Amide MBHA resin)) [CW14 (CL14 with Leu169 mutated to Trp)]	–	binds	–
CEGCKGFFRRTIRH (peptide, UniProt P37231 156-169, looked up, PPARγ, residues Cys156-Leu169, with Leu169 mutated to His; source: synthetic peptide (Fmoc SPPS on Rink Amide MBHA resin)) [CH14 (CL14 with Leu169 mutated to His)]	–	binds	–
SRNKCQYCRFQKCLAV-NH2 (peptide, UniProt P37231 186-201, looked up, cysteine pairing not given here, PPARγ, residues Ser186-Val201 of the DBD; Made on Rink amide resin, so probably a C-terminal amide; source: synthetic peptide (Fmoc SPPS on Rink Amide MBHA resin)) [SV16, α-helix of PPARγ (residues Ser186-Val201)]	156	–	–
H-CEGCKGF[S5]RRT[S5]RYYGRKKRRQRRR-NH2 (staple 8-12; cysteine pairing not given here) [ST-CY14 (stapled T-CY14)]	–	–	EC50 [2]: 3.15 µM; Kd [3]: 0.0325 µM; Kd [4]: 0.668 µM
CEGCKGFFRRTIRYRKKRRQRRR-NH2 (cysteine pairing not given here) [T-CY14 (CY14 with the TAT sequence conjugated to its C-terminus)]	–	–	Kd [4]: 4.18 µM
CEGCKGF[S5]RRT[S5]RY-NH2 (staple 8-12; cysteine pairing not given here) [S-CY14 (stapled CY14)]	3.96	–	–
